What all share (type): cell-based, rat
Assay [1] deals with Spinal cord explants. Briefly: Axonal outgrowth from spinal cord explants with or without Ara-C in the medium. The conditions noted are these: 1 μm Ara-C added to NB medium, after 13 days in culture, vs standard NB medium. Here is the method: Spinal cord explants are prepared using procedures known in the art. Briefly, pregnant Sprague Dawley rats were sacrificed by CO2 inhalation at gestational day 15, and pups were removed by Cesarean section. Spinal cord was removed posteriorly and transferred to a PDMS-lined petri dish in a drop of medium. The cord is then bisected longitudinally and finely minced transversely into sections 200-300 μm thick. Sections were suspended in NB medium plus 1% GlutaMAX supplement and 2% B27 supplement. Explants were then plated onto chemically or topographically patterned glass substrates or MEAS, all of which had been adsorbed overnight with laminin at 40 μg/ml in 10 μL of medium. Explants can be precisely positioned on the growth substrate during this step. In this experiment, explants were positions with the explant body over three contacts in the top row of the MEA, allowing space for axonal outgrowth over the other contacts. After 5 min, allowing for initial adhesion, enough medium was added to just cover the explant, and it was placed in an incubator at 5% CO2 and 37 deg C. Medium was replaced every 2 days.
Explants were fixed and stained on DIV 13 to identify axonal and dendritic outgrowth. […] Five well-attached explants were imaged in each condition, and their outgrowth was quantified using ImageJ software (NIH, Bethesda Md.). […]

Assay [2] relates to Myoblasts. The assay is described as follows: Myoblast fusion and differentiation into myotubes on surfaces adsorbed with different coatings. The protocol:
Myoblasts were isolated and cultured as previously described. Briefly, pregnant Sprague Dawley rats were sacrificed by CO2 inhalation at gestational day 21, and pups were removed by Cesarean section. Hind limb muscles were removed, and tissue was finely minced and digested (20 min at 37° C.) in PBS containing 1.5 U/ml collagenase (type D, Roche, Mannheim, Germany) and 2.5 U/ml dispase (type II, Roche, Mannheim, Germany). Single cells were separated from debris, pelleted by centrifugation, and resuspended in growth medium consisting of Ham's F-10 medium plus 20% fetal bovine serum, 1% Penicillin/Streptomycin, (all from Invitrogen, Carlsbad, Calif.) and 2.5 ng/ml human b-FGF (Promega Corporation, Madison, Wis.). Cells were then plated into 75 cm^2 flasks and incubated for 24 hrs. Adherent cells were resuspended and plated onto PDMS substrates in differentiation medium consisting of Neurobasal medium including 2% B-27 supplement, 1% Penicillin/Streptomycin and 1% GlutaMAX (all from Invitrogen, Carlsbad, Calif.) at a surface density of 200,000 cells/cm^2. Prior to seeding, surfaces were plasma treated (O2 plasma for 120 S at 50 Watts) and adsorbed overnight with 40 μg/ml laminin (Sigma Aldrich, St. Louis, Mo.). Medium changes were performed every other day.

The subject of assay [3] is Hippocampal neurons. Briefly: Morphology and Sholl analysis (Bonfire program) of GFP-transfected hippocampal neurons treated with BDNF. The conditions noted are these: 25 ng/ml BDNF. The protocol:
Hippocampal neurons were isolated from E18 rat embryos and cultured. Briefly, embryos were removed by Cesarian section at 18 days gestation and decapitated. The hippocampi were manually dissected under a microscope, and cells were triturated with a fire polished glass pipette tip, counted on a hemocytometer, and plated at a density of ˜1800 cells per mm^2 on 35 mm petri plates (Corning) coated with 1 mg/ml poly-D-lysine (Sigma-Aldrich). Cultures were maintained in Neurobasal medium containing penicillin, streptomycin, glutamine, and B27 supplement (NB; all purchased from Invitrogen).
At 5 days in vitro (DIV5), cells were transfected with cDNA encoding GFP using Effectene (Qiagen). The low efficiency of this transfection technique in this cell system allows the easy identification of the processes associated with single neurons. In the BDNF treatment groups, treatment occurred from DIV7-10, during which regular NB was replaced with NB containing 25 ng/ml BDNF. […] Cultures were fixed in 4% paraformaldehyde on DIV10 and immunostained with rat anti-GFP (a gift from Dr. Shu-Chan Hsu, Rutgers University) and MAP-2 (Sigma-Aldrich). Neurons were imaged in the GFP channel at 200× using an Olympus Optical IX50 microscope with a Cooke Sensicam CCD cooled camera, fluorescence imaging system, and ImagePro software (MediaCybernetics). Images were acquired in 8-bit TIFF format, measuring 512×640 pixels.
An embodiment Bonfire program is a series of custom scripts written in, for example, MATLAB (MathWorks), although it will be appreciated that any suitable programming language may be employed. Neuronal morphology was digitized in three stages based on the initial images. In the first stage, the semi-automated tools available through the NeuronJ plugin to ImageJ (NIH, Bethesda Md.) were used to define all neurite positions (FIG. 6(A-B)). The data for each neurite are exported using NeuronJ in the form of a series of nodes with defined positions in the X-Y plane, where nodes belonging to an individual neurite segment are linked by association. These tools allow the user to guide the tracing of each neuritic segment with course resolution by hand but reduce tracing time by using a curve-fitting algorithm to fine-tune the exact location of the nodes defining the neurite position.
In the second stage, portions of the embodiment Bonfire program were used to convert the strings of nodes provided by NeuronJ into SWC format for further manipulation. NeuronStudio is then used to define the pattern of connectivity between neurite segments (FIG. 6(C)). The transformation of the data into SWC format allows for the linkage of the simple strings of nodes defined previously into more complex branching structures. After linking is complete, another component of the embodiment Bonfire program checks the resulting structure for errors and non-linkages (FIG. 6(D)), based on the assumption that each neuritic segment may only give rise to two or less daughter segments. […] These two steps fully determine the structure of each cell's neuritic arbor in 2-dimensional space and encode it in a digital format.
Using these digitized neuritic arbors, a second component of the embodiment Bonfire program was then used to perform process identification and extract the following metrics: number of primary neurites, number of secondary neurites, number of branch points per cell, number of terminal neurite tips per cell, and Sholl analysis performed with a 3.0 μm ring interval (FIG. 6(E)). Sholl analysis is performed conceptually by drawing concentric circles around a cell body at incrementally increasing radii and counting the number of times each circle crosses a neuritic segment. The number of intersections is graphed as a function of radial distance from the cell body to give a quantitative representation of how neurite density varies spatially. […]

[4] abbreviates: DIV7-10, vs untreated control, data not shown.

Take `Nc1ccn([C@@H]2O[C@H](CO)[C@@H](O)[C@@H]2O)c(=O)n1` [Ara-C]: in assay [1], the “axonal outgrowth length (maximum axonal extension from explant body)” value is reported as “did not appreciably reduce”.
With laminin, the “myoblast fusion and maturation into striated myotubes” value in assay [2] (laminin adsorbed surfaces) was “robust”. The myotube differentiation result in assay [2] (surface adsorbed with the substance, data not shown) is listed as “promoted myotube differentiation”.

B1: BDNF: a well-studied extracellular factor that regulates neurite morphology (protein, UniProt P23560 19-247, looked up)
Neurotrophic factor BDNF …: APMKEANIRGQGGLAYPGVRTHGTLESVNGPKAGSRGLTSLADTFEHVIEELLDEDQKVRPNEENNKDADLYTSRVMLSSQVPLEPPLLFLLEEYKNYLDAANMSMRVRRHSDPARRGELSVCDSISEWVTAADKKTAVDMSGGTVTVLEKVPVSKGQLKQYFYETKCNPMGYTKEGCRGIDKRHWNSQCRTTQSYVRALTMDSKKRIGWRFIRIDTSCVCTLTIKRGR
With B1, in assay [3] (DIV7-10, vs untreated control), the “average number of branch points per cell” value was “no change between conditions”, the “distal neurites (total Sholl curve)” value is given as “no effect on distal neurites”, the “number of primary neurites (primary extensions) per cell” value is listed as “statistically significant increase” and the “number of secondary neurites per cell” value is “does not reach statistical significance”. The “number of terminal branches per cell” value in assay [3] (DIV7-10, vs untreated control) is “no change between conditions”. Also, in assay [3] (setting [4]), the average process length entry was “no significant change” and the total arbor length result was “no significant change”. Further, the “proximal neurites within the first 35 μm of the soma (total Sholl curve)” value in assay [3] (DIV7-10, vs untreated control, global exposure in vitro) is recorded as “increases proximal neurites”. Besides, in assay [3] (DIV7-10, RIT labeling scheme Sholl analysis), the “number of Sholl intersections with terminal neurites” value was “increase”. The “number of Sholl intersections with primary neurites” value in assay [3] (DIV7-10, segment identity-specific Sholl analysis) is “increase”.

Values taken from US8615311B2, “Microelectorode array, methods for preparing the same and uses thereof” (Rutgers, The State University of New Jersey, priority 2010, dated 2013).
